Experimental data published in patent US20160083465A1 (AVEO PHARMACEUTICALS, published 2016).

T1: mouse IgG1 Fc-mature human GDF15 fusion protein (mFc-rhGDF15) (mouse; human)
T1 construct: Made in CHOK1SV cells, purified by Protein A and size exclusion; also called mouse Fc fused to human GDF15
T1 chain: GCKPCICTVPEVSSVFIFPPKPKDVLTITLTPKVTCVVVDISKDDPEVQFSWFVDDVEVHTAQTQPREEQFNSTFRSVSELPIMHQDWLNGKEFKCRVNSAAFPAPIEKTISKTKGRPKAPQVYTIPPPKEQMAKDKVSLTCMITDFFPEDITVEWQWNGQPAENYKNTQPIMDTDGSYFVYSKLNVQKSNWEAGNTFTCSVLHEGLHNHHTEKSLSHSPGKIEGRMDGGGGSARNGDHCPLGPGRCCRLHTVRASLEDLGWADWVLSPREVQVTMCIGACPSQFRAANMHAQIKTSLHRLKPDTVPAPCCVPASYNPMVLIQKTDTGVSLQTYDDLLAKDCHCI

T2: rabbit IgG1 Fc-mature mouse GDF15 fusion protein (rFc-rmGDF15) (rabbit; mouse)
T2 construct: also called rabbit Fc mature recombinant mouse GDF15
T2 chain: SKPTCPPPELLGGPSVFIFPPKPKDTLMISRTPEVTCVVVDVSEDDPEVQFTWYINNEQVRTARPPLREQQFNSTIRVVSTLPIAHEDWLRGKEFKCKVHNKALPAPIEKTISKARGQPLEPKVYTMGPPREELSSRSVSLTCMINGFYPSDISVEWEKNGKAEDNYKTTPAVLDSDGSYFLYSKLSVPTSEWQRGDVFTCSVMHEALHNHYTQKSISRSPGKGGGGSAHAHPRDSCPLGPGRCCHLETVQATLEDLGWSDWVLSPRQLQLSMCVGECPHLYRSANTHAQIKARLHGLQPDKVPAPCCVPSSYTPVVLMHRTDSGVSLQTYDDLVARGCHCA

T3: mouse Fc mature recombinant cynomolgus monkey GDF15 (mFc-rcGDF15) (mouse; cynomolgus monkey, UniProt G7PWZ3 193-308)
T3 construct: mature; not shown: mouse Fc and any linker
T3 sequence (looked up): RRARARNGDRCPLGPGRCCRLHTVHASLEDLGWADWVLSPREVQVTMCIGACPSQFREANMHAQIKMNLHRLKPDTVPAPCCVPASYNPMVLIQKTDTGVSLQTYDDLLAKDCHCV

T4: cleaved-rhGDF15 (human, UniProt Q99988 197-308)
T4 sequence: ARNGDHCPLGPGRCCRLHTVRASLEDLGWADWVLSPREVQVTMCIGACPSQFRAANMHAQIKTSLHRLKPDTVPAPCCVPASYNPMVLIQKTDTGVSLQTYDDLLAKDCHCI


Legend:
[1] = molecular target: T1, mouse IgG1 Fc-mature human GDF15 fusion …; assay: BLI Octet QK, 30 C, antibody from supernatant on anti-human Fc sensor, 400 nM mFc-rhGDF15
Experimental: The Octet analysis was performed at 30° C. using 1× Kinetics Buffer (ForteBio, Inc.) as assay buffer. Anti-human IgG Fc Capture (AHC) biosensors (ForteBio, Inc.) were used to capture human antibodies onto the sensors. Sensors were saturated in assay buffer for at 300 seconds before the assay. […] Baseline was established by dipping the sensors into 1× assay buffer for 200 seconds. Next, association was monitored for 220 seconds in 400 nM mFc-rhGDF15 protein, and dissociation was followed for 600 seconds in buffer alone.
Kinetic parameters of the antibody, kₐ, kd, and KD were determined.

[2] = molecular target: T1, mouse IgG1 Fc-mature human GDF15 fusion …; assay: SPR Biacore T100, 37 C, purified antibody captured by anti-human IgG Fc, antigen in solution
Experimental: (§1) Goat anti-human IgGs (Fc fragment specific, Jackson ImmunoResearch, West Grove, Pa.) were immobilized on carboxymethylated dextran CM4 sensor chips by amine coupling, according to a standard protocol. Analyses were performed at 37° C. using PBS containing 0.05% surfactant P20 as running buffer. The antibodies were captured in individual flow cells at a flow rate of 10 μL/minute. Injection time was varied for each antibody to yield an Rmax between 30 and 60 RU. […] The dissociation phase was monitored for up to 1200 seconds. The surface was then regenerated with two 60-second injections of 10 mM Glycine-HCl, pH 2.25, at a flow rate of 30 μL/minute.
Kinetic parameters were determined using the kinetic function of the BIAevaluation software (GE Healthcare) with double reference subtraction.

[3] = molecular target: T2, rabbit IgG1 Fc-mature mouse GDF15 …; assay: as above
Experimental: as §1, with “1500” for “1200”
(§2) Kinetic parameters were determined using the kinetic function of the BIAevaluation software (GE Healthcare) with double reference subtraction. Kinetic parameters for each antibody, kₐ (association rate constant), kd (dissociation rate constant), and KD (equilibrium dissociation constant) were determined Kinetic values of purified monoclonal antibodies on mFc-rhGDF15, mature human GDF15, rFc-rmGDF15, and mFc-rcGDF15 are summarized in Table 27.

[4] = molecular target: T3, mouse Fc mature recombinant cynomolgus …; assay: as above
Experimental: as §1, with “1500” for “1200”
as §2

[5] = molecular target: T1, mouse IgG1 Fc-mature human GDF15 fusion …; assay: as above
Experimental: as §1, with “1500” for “1200”
as §2

cleaved-rhGDF15 = molecular target: T4, cleaved-rhGDF15; assay: as above
Experimental: as §1, with “1500” for “1200”
as §2

Row | Binder | Kd [1] [nM] | koff [1] [s⁻¹] | kon [1] [M⁻¹ s⁻¹] | Kd [2] [nM] | koff [2] [s⁻¹] | kon [2] [M⁻¹ s⁻¹] | Kd [3] [nM] | koff [3] [s⁻¹] | kon [3] [M⁻¹ s⁻¹] | Kd [4] [nM] | koff [4] [s⁻¹] | kon [4] [M⁻¹ s⁻¹] | Kd [5] [nM] | koff [5] [s⁻¹] | kon [5] [M⁻¹ s⁻¹] | Kd (cleaved-rhGDF15) [nM] | koff (cleaved-rhGDF15) [s⁻¹] | kon (cleaved-rhGDF15) [M⁻¹ s⁻¹]
1 | Hu14F11-1 (antibody, human IgG1, kappa, Mouse variable regions, human IgG1 and kappa constant regions; also called Chimeric 14F11) heavy: not shown light: DIVMTQSQKFMSTSVGDRVSVTCKASQNVGTNVAWYQQKPGQSPKALIYSPSYRYSGVPDRFTGSGSGTDFTLTISNVQSEDLAEYFCQQYNSYPHTFGGGTKLEMKRTVAAPSVFIFPPSDEQLKSGTASVVCLLNNFYPREAKVQWKVDNALQSGNSQESVTEQDSKDSTYSLSSTLTLSKADYEKHKVYACEVTHQGLSSPVTKSFNRGEC | 0.032 | 1.9e-05 | 630000 | 0.16 | 0.00046 | 3e+06 | – | – | – | – | – | – | – | – | – | – | – | –
2 | Hu14F11-24 (antibody, human IgG1, kappa, Chimeric 14F11 heavy chain with chimeric 06C11 light chain, human IgG1 kappa; tested in supernatant; also called chimeric light 06C11 with chimeric heavy 14F11) heavy: not shown light: DIVMTQSQKFMSTSVGDRVSVTCKASQNVGTNVAWFQQKPGQSPKALIYSASYRYSGVPDRFTGSGSGTDFILTISNVQSEDLAEYFCQQYNNYPLTFGAGTKLELKRTVAAPSVFIFPPSDEQLKSGTASVVCLLNNFYPREAKVQWKVDNALQSGNSQESVTEQDSKDSTYSLSSTLTLSKADYEKHKVYACEVTHQGLSSPVTKSFNRGEC | 0.31 | 0.00022 | 710000 | – | – | – | – | – | – | – | – | – | – | – | – | – | – | –
3 | Hu14F11-23 (antibody, human IgG1, kappa, Chimeric 06C11 heavy chain with chimeric 14F11 light chain, human IgG1 kappa; tested in supernatant; also called chimeric light 14F11 with chimeric heavy 06C11) heavy: not shown light: DIVMTQSQKFMSTSVGDRVSVTCKASQNVGTNVAWYQQKPGQSPKALIYSPSYRYSGVPDRFTGSGSGTDFTLTISNVQSEDLAEYFCQQYNSYPHTFGGGTKLEMKRTVAAPSVFIFPPSDEQLKSGTASVVCLLNNFYPREAKVQWKVDNALQSGNSQESVTEQDSKDSTYSLSSTLTLSKADYEKHKVYACEVTHQGLSSPVTKSFNRGEC | 0.18 | 6.2e-05 | 340000 | – | – | – | – | – | – | – | – | – | – | – | – | – | – | –
4 | Hu01G06-138 (antibody, human IgG1, kappa) heavy: not shown light: DIQMTQSPSSLSASVGDRVTITCRTSENLHNYLAWYQQKPGKAPKLLIYDAKTLADGVPSRFSGSGSGTDYTLTISSLQPEDFATYYCQHFWSSPYTFGQGTKLEIKRTVAAPSVFIFPPSDEQLKSGTASVVCLLNNFYPREAKVQWKVDNALQSGNSQESVTEQDSKDSTYSLSSTLTLSKADYEKHKVYACEVTHQGLSSPVTKSFNRGEC | – | – | – | – | – | – | 0.044 | 0.0008 | 1.9e+07 | 0.025 | 5.3e-05 | 2.3e+06 | 0.011 | 4.1e-05 | 5.9e+06 | 0.0045 | 2.5e-05 | 7.9e+06
5 | Hu01G06-122 (antibody, human IgG1, kappa) heavy: not shown light: DIQMTQSPSSLSASVGDRVTITCRTSENLHNYLAWYQQKPGKAPKLLIYDAKTLADGVPSRFSGSGSGTDYTLTISSLQPEDFATYYCQHFWSSPYTFGQGTKLEIKRTVAAPSVFIFPPSDEQLKSGTASVVCLLNNFYPREAKVQWKVDNALQSGNSQESVTEQDSKDSTYSLSSTLTLSKADYEKHKVYACEVTHQGLSSPVTKSFNRGEC | – | – | – | – | – | – | 0.063 | 0.0014 | 2.2e+07 | 0.01 | 2.4e-05 | 2.3e+06 | 0.0065 | 2.1e-05 | 5.9e+06 | 0.0079 | 3.4e-05 | 7.9e+06
6 | Hu01G06-127 (antibody, human IgG1, kappa) heavy: not shown light: DIQMTQSPSSLSASVGDRVTITCRTSENLHNYLAWYQQKPGKSPKLLIYDAKTLADGVPSRFSGSGSGTDYTLTISSLQPEDFATYYCQHFWSDPYTFGQGTKLEIKRTVAAPSVFIFPPSDEQLKSGTASVVCLLNNFYPREAKVQWKVDNALQSGNSQESVTEQDSKDSTYSLSSTLTLSKADYEKHKVYACEVTHQGLSSPVTKSFNRGEC | – | – | – | – | – | – | 0.051 | 0.0021 | 3.9e+07 | 0.0095 | 1.6e-05 | 1.8e+06 | 0.018 | 4.2e-05 | 4.6e+06 | 0.01 | 3.6e-05 | 6.1e+06
7 | Hu01G06-135 (antibody, human IgG1, kappa) heavy: not shown light: DIQMTQSPSSLSASVGDRVTITCRTSENLHNYLAWYQQKPGKAPKLLIYDAKTLADGVPSRFSGSGSGTDYTLTISSLQPEDFATYYCQHFWSSPYTFGQGTKLEIKRTVAAPSVFIFPPSDEQLKSGTASVVCLLNNFYPREAKVQWKVDNALQSGNSQESVTEQDSKDSTYSLSSTLTLSKADYEKHKVYACEVTHQGLSSPVTKSFNRGEC | – | – | – | – | – | – | 0.055 | 0.0019 | 3.7e+07 | 0.038 | 7.9e-05 | 2.2e+06 | 0.014 | 4.4e-05 | 5.3e+06 | 0.01 | 6.2e-05 | 7.3e+06
8 | Hu01G06-146 (antibody, human IgG1, kappa) heavy: not shown light: DIQMTQSPSSLSASVGDRVTITCRTSENLHNYLAWYQQKPGKSPKLLIYDAKTLADGVPSRFSGSGSGTDYTLTISSLQPEDFATYYCQHFWSDPYTFGQGTKLEIKRTVAAPSVFIFPPSDEQLKSGTASVVCLLNNFYPREAKVQWKVDNALQSGNSQESVTEQDSKDSTYSLSSTLTLSKADYEKHKVYACEVTHQGLSSPVTKSFNRGEC | – | – | – | – | – | – | 0.063 | 0.00072 | 1.1e+07 | 0.008 | 1.5e-05 | 2e+06 | 0.0093 | 2.6e-05 | 5.3e+06 | 0.011 | 5.2e-05 | 6.5e+06
